Assay results as given in patent US20190375786A1, “STABLE PEPTIDES AND METHODS OF USE THEREOF” (Fred Hutchinson Cancer Research Center, priority 2016, published 2019).

Experiments:
[1] = Resistance to elevated temperature, HPLC; type: physicochemical; settings: HPLC peak vs untreated peptide; for Resistance to Temperature (75° C.): 75° C. for one hour; for Resistance to Temperature (100° C.): 100° C. for one hour
Experimental: (§1) Peptides were first suspended in 500 μl of ddH2O to a stock concentration of 2 mg/ml. Reactions were prepared by adding 12.5 μg of peptide from the stock solution to a 10 mM solution of DTT in PBS and allowed to incubate at room temperature for 30 minutes. Other reactions were prepared with 12.5 μg peptide and 500 U/ml trypsin in 25 mM Tris/75 mM NaCl buffer (pH 7.0) and incubated for 30 minutes at 37.5° C. These reactions were then quenched with 5 μg of soybean trypsin inhibitor (I) and, in some cases, 10 mM dithiothreitol (DTT). Reversed phase HPLC (RP-HPLC) was run on samples using an Agilent 1260 HPLC equipped with a C-18 Poroshell 120B column. Sample were analyzed by a gradient method with a mobile phase of Solvent A (water with 0.1% TFA) and Solvent B (acetonitrile with 0.1% TFA). Solvent B was ramped up from 5%-45% of the mobile phase over a period of 10 minutes. For testing pepsin digestion resistance, reactions were prepared with 12.5 μg peptide with or without 500 U/ml pepsin in simulated gastric fluid (SGF; pH 1.05; […] sodium chloride in 0.7% (v/v) hydrochloric acid) and were incubated for 30 minutes at 37.5° C. For testing temperature resistance, peptides were incubated at 70° C., 75° C., or 100° C. for one hour in 0.5 mM PBS, pelleted, and then the supernatant was analyzed by HPLC.
This example illustrates peptide stability at high temperatures. Peptides were first suspended in 500 μl of ddH2O to a stock concentration of 2 mg/ml. Reactions were prepared by adding 6.25 μl of peptide from the stock solution with 95 μl ddH2O and incubated at room temperature, 70° C., or 100° C. for one hour in a Thermocycler. RP-HPLC was then run on samples using an Agilent 1260 HPLC equipped with a C-18 Poroshell 120B column. Sample were analyzed by a gradient method with a mobile phase of Solvent A (water with 0.1% TFA) and Solvent B (acetonitrile with 0.1% TFA). Solvent B was ramped up from 5%-45% of the mobile phase over a period of 10 minutes.

[2] = Resistance to reduction by DTT, RP-HPLC; type: physicochemical; settings: 10 mM DTT in PBS, room temperature, 30 minutes; HPLC peak vs untreated peptide
Experimental: Peptides were first suspended in 500 ul of ddH2O to a stock concentration of 2 mg/ml. Reactions were prepared by adding 12.5 ug of peptide from the stock solution to a 10 mM solution of DTT in PBS and allowed to incubate at room temperature for 30 minutes. Other reactions were prepared with 12.5 μg peptide with or without 500 U/ml pepsin in simulated gastric fluid (SGF; pH 1.05; […] sodium chloride in 0.7% (v/v) hydrochloric acid) and were incubated for 30 minutes at 37.5° C. Some reactions were quenched with a final concentration of 100 mM Tris base and 10 mM dithiothreitol (DTT). Some reactions were performed in all of the above components, including simulated gastric fluid, pepsin, Tris, and DTT (referred to as SPTD). Reversed phase HPLC (RP-HPLC) was run on samples using an Agilent 1260 HPLC equipped with a C-18 Poroshell 120B column. Sample were analyzed by a gradient method with a mobile phase of Solvent A (water with 0.1% TFA) and Solvent B (acetonitrile with 0.1% TFA). Solvent B was ramped up from 5%-45% of the mobile phase over a period of 10 minutes. Peptides were detected at an absorbance of 214 nm and 280 nm.
as §1
This example illustrates peptide stability in biological conditions including in the presence of reducing agents, proteases, oxidative conditions, acidic conditions, and simulated gastric fluids. […] Various peptides were suspended in 500 μl of ddH2O at a stock concentration of 2 mg/ml. This was then diluted in accord with the reaction conditions to prevent adverse buffering effects. Reactions were prepared with 12.5 μg peptide dissolved in solution and, in some samples, additionally suspended in a 10 mM solution of DTT, simulated gastric fluid (pH 1.05; […] sodium chloride in 0.7% (v/v) hydrochloric acid), 500 U pepsin (5000 U/ml pepsin), 50 U trypsin (500 U/ml trypsin) with 1 mg/ml inhibitor in PBS, or a combination of any of these conditions. All protease reactions were incubated for 30 min at room temperature and then quenched. Pepsin reactions were quenched by adding Tris base to a final concentration of 0.075 M. Trypsin reactions were quenched by adding excess soybean trypsin inhibitor. RP-HPLC was then run on samples using an Agilent 1260 HPLC equipped with a C-18 Poroshell 120B column. Sample were analyzed by a gradient method with a mobile phase of Solvent A (water with 0.1% TFA) and Solvent B (acetonitrile with 0.1% TFA). Solvent B was ramped up from 5%-45% of the mobile phase over a period of 10 minutes.
FIG. 18 illustrates high performance liquid chromatograph (HPLC) traces of peptides in non-reducing (NR) conditions (solid trace) or in 10 mM DTT reducing (R) conditions (dashed trace). […]

[3] = target: trypsin (Sus scrofa, UniProt P00761); assay: Trypsin digestion resistance of soluble peptide, RP-HPLC; type: in vitro ADME, porcine; set-up: purchased Sigma Aldrich 6567; settings: 500 U/ml trypsin, 30 minutes at 37.5° C.; HPLC peak vs untreated peptide
Chain of trypsin (P00761 9-231): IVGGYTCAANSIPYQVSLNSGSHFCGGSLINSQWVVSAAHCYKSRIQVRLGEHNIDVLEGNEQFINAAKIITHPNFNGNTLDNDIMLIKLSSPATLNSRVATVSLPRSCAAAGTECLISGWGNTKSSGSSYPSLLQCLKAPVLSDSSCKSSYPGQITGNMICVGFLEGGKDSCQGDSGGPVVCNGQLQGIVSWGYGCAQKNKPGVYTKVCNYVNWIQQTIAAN
Summary of the method: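 Read-out was RP-HPLC (C-18, water/acetonitrile with 0.1% TFA, 5-45% over 10 min) of peptide left after trypsin treatment. Digest: 12.5 μg peptide, 500 U/ml porcine trypsin, PBS, 37.5° C for 30 min, stopped by soybean trypsin inhibitor; samples then reduced (10 mM DTT) or left non-reduced.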

[4] = target: pepsin (Sus scrofa, UniProt P00791); assay: Pepsin digestion resistance in simulated gastric fluid, RP-HPLC; type: in vitro ADME, porcine; set-up: purchased Sigma Aldrich P7012; settings: 500 U/ml pepsin in SGF pH 1.05, 30 minutes at 37.5° C.; HPLC peak vs untreated peptide
Chain of pepsin (P00791 60-385): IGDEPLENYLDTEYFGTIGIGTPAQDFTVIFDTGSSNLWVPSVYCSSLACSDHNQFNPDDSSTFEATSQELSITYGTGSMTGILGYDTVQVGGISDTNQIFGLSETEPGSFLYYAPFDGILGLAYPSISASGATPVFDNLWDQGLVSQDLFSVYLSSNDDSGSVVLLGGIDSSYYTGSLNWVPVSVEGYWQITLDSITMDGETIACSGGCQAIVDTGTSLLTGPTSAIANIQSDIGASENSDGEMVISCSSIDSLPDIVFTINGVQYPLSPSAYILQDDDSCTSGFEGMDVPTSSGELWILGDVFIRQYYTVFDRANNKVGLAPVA
Summary of the method: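 Digestion resistance read by reversed-phase HPLC (C-18, 0.1% TFA, 5–45% acetonitrile over 10 min; 214/280 nm) after 12.5 μg peptide spent 30 min at 37.5 °C in pH 1.05 simulated gastric fluid, with or without 500 U/ml pepsin. Some samples quenched with Tris base and DTT.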

Substance | Resistance to Temperature (70° C.) ([1]; 70° C. for one hour) | Resistance to Temperature (75° C.) [1] | Resistance to Temperature (100° C.) [1] | Resistance to DTT Reduction (10 mM) [2] | Resistance to Trypsin (500 U/ml) [3] | Resistance to Pepsin (500 U/ml) [4]
25 (GSACLAEYQKCEGSTVPCCPGLSCSAGRFRKTKLCTK) [compound 25] | High (A peptide classified as high indicates that the majority (at least 75%) of the HPLC peak of the treated peptide is still present as compared to the HPLC peak of the untreated peptide) | High (A peptide classified as high indicates that the majority (at least 75%) of the HPLC peak of the treated peptide is still present as compared to the HPLC peak of the untreated peptide) | Low (A peptide classified as low indicates that the majority (over 75%) of the HPLC peak of the treated peptide disappeared as compared to the HPLC peak of the untreated peptide) | Low (A peptide classified as low indicates that the majority (over 75%) of the HPLC peak of the treated peptide disappeared as compared to the HPLC peak of the untreated peptide) | Low (A peptide classified as low indicates that the majority (over 75%) of the HPLC peak of the treated peptide disappeared as compared to the HPLC peak of the untreated peptide) | High (A peptide classified as high indicates that the majority (at least 75%) of the HPLC peak of the treated peptide is still present as compared to the HPLC peak of the untreated peptide)
47 (GSAQEPVKGPVSTKPGSCPIILIRCAMLNPPNRCLKDTDCPGIKKCCEGSCGMACFVPQ) [compound 47] | – | High (A peptide classified as high indicates that the majority (at least 75%) of the HPLC peak of the treated peptide is still present as compared to the HPLC peak of the untreated peptide) | Low (A peptide classified as low indicates that the majority (over 75%) of the HPLC peak of the treated peptide disappeared as compared to the HPLC peak of the untreated peptide) | Low (A peptide classified as low indicates that the majority (over 75%) of the HPLC peak of the treated peptide disappeared as compared to the HPLC peak of the untreated peptide) | Low (A peptide classified as low indicates that the majority (over 75%) of the HPLC peak of the treated peptide disappeared as compared to the HPLC peak of the untreated peptide) | Low (A peptide classified as low indicates that the majority (over 75%) of the HPLC peak of the treated peptide disappeared as compared to the HPLC peak of the untreated peptide)
4 (GSGDCLPHLKRCKENNDCCSKKCKRRGANPEKRCR) [compound 4] | – | High (A peptide classified as high indicates that the majority (at least 75%) of the HPLC peak of the treated peptide is still present as compared to the HPLC peak of the untreated peptide) | Low (A peptide classified as low indicates that the majority (over 75%) of the HPLC peak of the treated peptide disappeared as compared to the HPLC peak of the untreated peptide) | Low (A peptide classified as low indicates that the majority (over 75%) of the HPLC peak of the treated peptide disappeared as compared to the HPLC peak of the untreated peptide) | Low (A peptide classified as low indicates that the majority (over 75%) of the HPLC peak of the treated peptide disappeared as compared to the HPLC peak of the untreated peptide) | High (A peptide classified as high indicates that the majority (at least 75%) of the HPLC peak of the treated peptide is still present as compared to the HPLC peak of the untreated peptide)
16 (GSSCAKPGEMCMRIKCCDGQCGCNRGTGRCFCK) [compound 16] | – | High (A peptide classified as high indicates that the majority (at least 75%) of the HPLC peak of the treated peptide is still present as compared to the HPLC peak of the untreated peptide) | Low (A peptide classified as low indicates that the majority (over 75%) of the HPLC peak of the treated peptide disappeared as compared to the HPLC peak of the untreated peptide) | Low (A peptide classified as low indicates that the majority (over 75%) of the HPLC peak of the treated peptide disappeared as compared to the HPLC peak of the untreated peptide) | Low (A peptide classified as low indicates that the majority (over 75%) of the HPLC peak of the treated peptide disappeared as compared to the HPLC peak of the untreated peptide) | High (A peptide classified as high indicates that the majority (at least 75%) of the HPLC peak of the treated peptide is still present as compared to the HPLC peak of the untreated peptide)
52 (GSEGDCPISEAIKCVEKCKEKVEVCEPGVCKCSG) [compound 52] | – | High (A peptide classified as high indicates that the majority (at least 75%) of the HPLC peak of the treated peptide is still present as compared to the HPLC peak of the untreated peptide) | High (A peptide classified as high indicates that the majority (at least 75%) of the HPLC peak of the treated peptide is still present as compared to the HPLC peak of the untreated peptide) | Low (A peptide classified as low indicates that the majority (over 75%) of the HPLC peak of the treated peptide disappeared as compared to the HPLC peak of the untreated peptide) | Low (A peptide classified as low indicates that the majority (over 75%) of the HPLC peak of the treated peptide disappeared as compared to the HPLC peak of the untreated peptide) | High (A peptide classified as high indicates that the majority (at least 75%) of the HPLC peak of the treated peptide is still present as compared to the HPLC peak of the untreated peptide)
